Publication PMC5494602

Molecular target: Flag-TRAF3 (TNF receptor-associated factor 3, full length) (human (by the printed RefSeq NM_145725)) (UniProt Q13114)
Experiment: co-IP

Sequence of UniProt Q13114 (Q13114 whole entry): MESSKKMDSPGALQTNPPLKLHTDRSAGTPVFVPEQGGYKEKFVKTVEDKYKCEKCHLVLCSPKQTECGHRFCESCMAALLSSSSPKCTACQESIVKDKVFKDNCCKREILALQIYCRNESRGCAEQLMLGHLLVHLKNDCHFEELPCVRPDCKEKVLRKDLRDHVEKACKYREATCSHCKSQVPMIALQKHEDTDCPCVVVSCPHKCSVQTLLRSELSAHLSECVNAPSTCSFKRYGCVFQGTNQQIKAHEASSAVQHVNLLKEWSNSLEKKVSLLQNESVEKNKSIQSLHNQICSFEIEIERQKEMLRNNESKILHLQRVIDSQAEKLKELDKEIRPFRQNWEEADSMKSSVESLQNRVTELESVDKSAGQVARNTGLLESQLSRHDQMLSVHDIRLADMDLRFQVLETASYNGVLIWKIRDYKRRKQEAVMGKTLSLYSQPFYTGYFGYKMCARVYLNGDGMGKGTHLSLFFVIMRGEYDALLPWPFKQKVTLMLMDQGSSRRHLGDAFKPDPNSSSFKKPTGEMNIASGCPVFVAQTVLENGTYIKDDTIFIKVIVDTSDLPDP

For “HA-NS1 (wild-type NS1 of H5N1/HM) (natural protein)”, the fold decrease of the MAVS-TRAF3 co-precipitate was 8.5 fold.

“HA-NS1/126-225 (C-terminal effector domain fragment of H5N1/HM NS1) (domain or fragment)” showed a fold decrease of the MAVS-TRAF3 co-precipitate of 4.6 fold.
